Here are results for 47 sequences from the NTF2 design screens of Basanta et al. (2020).

The data set is described as follows: protease stability score; higher = more stable; yeast display proteolysis, trypsin and chymotrypsin.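 Note: relative to predicted unfolded state with 0 unfolded-like and 1 meaning tenfold more protease.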
Regarding “DEDREQAEEVIRSITEAMQTGDEHLWERMIDPNVRVIIDGRTYHGRLAWDLFRERYDVVHSSDSRIRHLRTYNGRVEVITQLRLDVEINGQRFETSMETHLIVLKFNGKWTVRRMEIH”, the protease stability score worked out at 1.67.

“SHHEEHLKRLESFLLEATDTGDEDFLTKLIDPHVKLDIDGVELHGREDWLKYFLDLGVDHVRITSSRDINGRLHLTTRMHIGDKITETRVHSEKFDGQWVIKEIIIH” returned a protease stability score of 0.823.

Turning to “SEDEEILREILEETNKALHTGDENHIRHLLDPHVRWHVGDKTIIGRDLLVDILRRMGVKHHEIRLRDMDHVGEKIRLEGELIIRYGDKTETHDVTFVLIKFDGRWHIEEYIHG”, the protease stability score was 0.866.

Regarding “DEEHTDITRATEHLIDSMETGDEDRLQELFDPNTLMRINGRRHHGREDMREFIRELVEKVKNLKIEIDHIDVVGNKVRLEVTLRVNGQEISTHIIIVKVDGRWIVKRMHIN”, the protease stability score is 0.667.

In turn, “SEEEEELTKWKKILEEALKTGDWRLIEELFDPHVRFIINGRHIHGMEVRLKEQEELGVNHESQELRDKHIEHQGDKVVINGHLNKIVFVNGKDLHDRYDIIFIYTKINGRWYVKRMIVN” registered a protease stability score of 0.502.

Consider “SEDEKMTEMALRLFMHTWRTGDEQVFRHLADPDYRLEVNGVEFIGWEQVTELFSRIVKRFDHMHIHLREFDDINGQADVRGTLILIQGDKEIRMETHIISKKFNGRWTHRRVHFH”, for which the protease stability score was found to be 0.428.

The sequence “SEDEEAIRHALRIFEEVLQTGDEHSIENLFDPNTRIDINGKHLHGWHKLEEWLSRFDHLEVHVHIHSSNVFDGRIHNDTRVKMHLYINGKIIELHQETHIISKKVNGRWYVKMIIIR” showed a protease stability score of 1.17.

As to “DEKKAKEAAHRLLEAMVTGDPRKLNENADEDVQVEYGDKSYTGREKLNEWAHEFQKRVDHVRIESIHQRGDTATVKVRVEHNGETDTFVLIVEAHNGRAKRIRQETR”, the protease stability score turned out to be 1.1.

For “SEEEEWLRRYRHLFKHLWTTGDWRTLEELLDPRTRIDIDVGDKRYHIHGREDAVEFFHRERRELGIDHIEDKRTRVIDGQVEIHGKIHVDGRDETRTIHVIVVNGRMKYLYFHVE”, the protease stability score stood at 0.5.

Regarding “SEEDEKSHKLWEEMLEIFMTGDWKRESELADPEARRVFIVDGVNHVFHGRETITEALLRWHKEMRVHDFKLHDRRYQGEKFHVDGIVDGEYNGKKRIYEVEIIIIVVDGRVHSLEFEHK”, the protease stability score is 0.296.

“DEDEENARKVSKKYKEIVLTGDEHALERLIDPNVRIDFNGKEFHGREDLSRLFHERFKRADHIEFDVKHINVQGNKVDLDVREIEIVGDKTHVHNVILHVLKIDGRWLIKEIRVH” came in with a protease stability score of 1.26.

In turn, “DEDKESTDKMLELMLHLIKTGDFEIFEHLFDPNVRVNVGDKERVGWKEALKFRRQWRLHHMEVRDVHKVGDKMHVDSRIDGSVNGVREEDRTEIILVKYDGRWFITSIEFH” registered a protease stability score of 0.99.

With “TEDQEEAKRLLHHLAHNWFTGNEHILTRLADPNTRMNVNGRDYHGREIMHETVREILERLGIDHFEIKDMRFIVQGEKIHIHIHIRSTVNGQEEDFRLSISVHKIDGRWVIKEINLHFI”, the protease stability score stood at 0.511.

The sequence “DEDHRIAHEIFRLLFHLLSTGDEDIFNQMADPHVQSIVGDKEFHGREQLRKAWHEIRVHRSDIHSVEIRVINGRVRNDMRIRYDGEINGKKIDTDIHMEVVIDKYNGRWIIRSVSIEII” registered a protease stability score of 2.16.

Take “RDIRELTLMMTKLIRKTDKTGDPRIAHELADPHYRFDFDGVEYHGREIVQHWMEKYPNVRFKVRHVDIVGDKARIEGTDNVDGQEIDTEYRVSKVDGRWHLEEIIFR”: the protease stability score was determined as 0.487.

The sequence “SDRRELLERLAELFLHWWLTGDWKAISDNADPNVRLDIQQGDKHIHDIGRERTEEVLRKIFERFKNLKIEIKRFDMQGDKLHVDSRVTFDGVEFNMEIHNLVVDGRIREIYVHLH” yielded a protease stability score of 1.54.

In turn, “SEDEHRSRHDAELFLKFVKTGDEHHLQRFADPNVQFHQGEWEDHGRESLREQFRKFMEDLGADHSELESIRVHIQGDKMTVHIHVTFRVGDKTIKSTWRFYITKINGRWTMERMDVELH” showed a protease stability score of 0.629.

“DEHEEQVRRFLHHLWRSVQTGDEHELANNFDPNTRVDVGDKHLHGMERFVYLIFEFARHWRIRHTTLHFIVRIGEFIEVDHILDGEIDGRRREVKMTIIIFKVDGRWIIRSMEVK” registered a protease stability score of 1.82.

On to “DEEEKEMKEIMHMLDHWLRTGDEETLNHYLDPNVRLIIFIDGRNLTSIGREESRELWRYVVEEWRIHDMHVTEVRSQGDKAESNTRLKGHVNGVERTLIQHIEVDVVDGRIKRIIIRVH”, for which the protease stability score amounted to 2.1.

In turn, “SEEEEEMERILKYIFRLLTTGNWKELTDNLDPDVRIIIGDKTLIGREEFQRKFKDDHDKFKNMRLEIKDSHMQGDKIIIHLQVDIGDKHFEVIIYVVKINGRWHLKTLEIR” registered a protease stability score of 2.09.

The sequence “SEEEEEAERAIKLWIHNVLTGDEDSLTKLLDPHVKIIDYVNGVEINNHGREWVKHWLEHLRYDIIRIHEFRSQGDKVHVDGKSEGNYNGKHVETRVMFHLHVYNGVIKSVHIIHI” came in with a protease stability score of 1.63.

Consider “DDEKARQQVREFIRAMETGDEDSMVQQLDENAHVHIGDHVWRGREQARNAFKEFVKQFDRIEVKRVEYRNGDVVIDAVANVNGVRVRIIFKIHIHNGRIKNLRIEYRDEEEKKQLDG”, for which the protease stability score came out at 2.29.

“LESEEDLREAIRILIEDLRTGDEDSLHNLLDPNVRIDVNGVKLHGMEWVSHTIRHLGVKHTYVINRRIKIQGNKVDIDGEFNLRYDGKEERRRITLHVQKIDGVWVIEEITIR” yielded a protease stability score of 0.971.

Regarding “DERKKATKETMRLEEEARNTGDEHELTKLVDPHVRLVIDGVNFIGWEVFLKRFNDLGADHVELRIDEIELIGDKVIVHGTLRIRVGDKETQEKVELYWLKINGRWVLEQVNHK”, the protease stability score turned out to be 1.71.

Turning to “SEDEEYSRIIVKLWLEKMRTGDEDSLTKLMDPNYRLDINGKIFHGREEALLALREMVNRIDHFRDIKIHHVDIQGDKIRIDGRLEGEINGVHEIHKSSLVLVKYDGVWVIEEQKVL”, the protease stability score was found to be 1.91.

For the sequence “SEDEELIRRFLDEFEKVIRTGNETELQRLMDPNTRFEIDGVEYHGREEVSNLLIDWAKELRLHSLHFRHIELQGEKIKIDTRENREVDGKRHVRRTEIILIKIDGRWYLHSMRYE”, the protease stability score was 1.98.

With “DETNKTLKEVFRELVHSLFTGDEERLTELADPHARFHQGEKELHGREEISKEMSRMIERADHVKIILTHMEVQGDKIIIEGHLEIRVDGRRIDVSTTLILHKVNGRWFITEIHII”, the protease stability score was determined as 0.241.

In turn, “DESKESARSFEDLLQEVRRTGDERKLVNLIDPHVKININGKIFHGWEDLEREFHRIKNIRFHVERMRVVGDKIDVRGTLHVDGQTVDTEIDVYKIDGRWAIESLRIG” displayed a protease stability score of 1.43.

The sequence “DETRETLERFWHILVRAEKTGDERIFYEMLDPNAQLNVNGRTFHGREILVKIFHEWRVHDSEIREIDIQGDKVDMHVHSDIQVGDKRIRTDMRIIMVKIDGKWLIRTLKVE” yielded a protease stability score of 2.16.

“DEEHEKLYQDLEYWVKMVRTGDEDSHLEYADPDVRLDVNGQQFIGREEFTRFFRTLSRELGLDNINFRIKDIRNVGDKIDIDGHREINGRRVRIILVAWKFNGRWYLHEERIR” yielded a protease stability score of 1.39.

Take “SETEEITERWLRLALEALRTGDFEFISRLADPHVRSEYNGVEFIGREEMVRFEEERLERLGATPSDLITRDVEFQGNKVIIHQEMEMRVGDKRHTNETTIFSHKFDGRWILHSIKFH”: the protease stability score is 0.984.

“DEDEREMERWFQEILEDLRTGDFRSISRMVDPHAKVDVNGQERHGREQVENLIRRFKNATIHITHVDLDVVNGKLVVRIDTRLHVDGQTRKTEIIVISNKVNGRWFMESLSFKIE” yielded a protease stability score of 0.904.

With “DETEELFEEIVKIFIEAMETGDWRLLKRMVDPHVRSIQGDFHLHGRESMLELWLHIRIDRITLTDARVRIQGEKVHVDLRVKTNGIINGRRKDTQTHVHLHLDKVNGVWSITITNIIFE”, the protease stability score was found to be 0.553.

As to “EEEEKHEREMAKIMLDVLRTGDEELFERMFDPNTRYEVGDKILHGRHEVLRNWLEMIKKFKNARFITRHVHVFNGVLHINIEVRFDGRTHEYHIDLFFWDGRFKEVRVESH”, the protease stability score is 1.54.

In the case of “SEDDNLNEWMMRVWLTTLRTGDEKNTERLLDPNARLHVGDKDFHGRELLTKHFYDEVETLGFKHSELKRLLYQGEKMIIHVEVNINGVDIHIDVHIRKIDGRWYIHQVHVR”, the protease stability score was found to be 2.14.

Sequence “TSHEHELRRVAEEIIHAYLTGDWWRWERLFDPHVRVETQVGDKRIERHGREDLIRFLNEMRVHRIEIKTRELYDGRVHIHSRMDYEVDGQRDDVDLHLHFHIVDGKVEEVVITIK” displayed a protease stability score of 1.47.

In turn, “REDEQDLRKFVEDLIHSLKTGDEDSTSRLLDPHVRVEIGDKEFVGREDFTRLMVETVRRYDHIRFDLRRVEDIDGKAHIHGHIYIRVNGVWHHKEVEIIIDKINGKWVIRELRVK” returned a protease stability score of 2.33.

The sequence “DREHREREELLNETNKAIATGDEETLRRLFDPNVQIEQGEYHHHGWEWVKKLMEEMRIEVEHVHDRRVDMFENHVRVDTHVHLRFIIGDKIFHVNLRQEIVMHKVNGVWIFKSFKYH” displayed a protease stability score of 1.4.

On to “DEEEKESRLALEEFLTMMKTGDEDRFTELADPHARSHYNGREHHGREVFLDWFRRVKGLKVDLQHVKTFNGRIIIHVRFHYDGVTYYVEIFVEKFDGRWYLTRVHHI”, for which the protease stability score worked out at 0.421.

As to “SEKDELLDEILEKLRHDVETGNERLIRKNLDPHVKTDFNGRELHGMDLALRVWREHHEKVKNIRLEIKSVESVDGVVIIHMHVEIDGRHLDVILRWFVVNGRVKSVEIEIK”, the protease stability score was 0.232.

“HEDEKIARELTELLLHHFHTGNEESLSKLMDPNVRVIAENHELHGMEKKIEKNRKYLKDLGVDHFSFELRHLDLQGDKARVEGIEHWTINGQHHERHMVLHIVVVNGRLQESSIEIR”: the protease stability score stood at 0.929.

As for “SEEEDHIREFLLLIIHAFRTGDEEFFERNVDPNVRLHSDVDGRELQLHGRDEFSRYFHHFRHRAGIDHIEDKRVTSQGDKIIVHGWSIVGDKIHHLELHFIVIDGQVHTVEIRPK”, the protease stability score was found to be 1.28.

As for “SEFENLQRLWLEILEHHSETGDERFMSRLADPNAKLLVNGKEFHGMEEVVEFIERLWEKFKNVRVEIHDFTVQGNKIDMDVILYYGEKVHRTEMHAVKYDGRWFMRELSIR”, the protease stability score was 1.38.

“DEDREMVEEVIRERLEDLKTGDWKKLADLADPHVRLDVGDKEYHGREEFTKTFTDILRILGHSNIQTDLKHIDFFDGRLDVHQTVHIGDKTIHHQILFHKFDGKWKITEMRITIR”: the protease stability score is 0.928.

“TEDERDFREFWERWLHNTVTGDEELLSRMMDPHAKLHVGDKENVGMEEAARLFVEISDELRLHSFHIRHEEHQGDKVILHTRMNVRINGKEINFRTVMIVRKIDGRWIIRSFQID” showed a protease stability score of 0.713.

“DHEVAKTMMEEWQKALENGDDKKLKELYDPDGEWEADDEQDQGTEVIEKLMEKVKKQGLKFQVRKAKVEGDKFTVVYDLHVGNKTATFEVEVHVEGGRIKKVKAKADEEAKKLITEG” registered a protease stability score of 2.05.

“SENEKRMRELAEIILISWWTGDEDTLKDLADPRTRVNIDGVDLIGMELTSEFLERHLREMRIHSIELESITVIDGQAHIHLEVDTVVNGVRIRTKIHILVVTVDGRLKSEHYHRR” showed a protease stability score of 0.446.
